Assay results taken from patent US20170204142A1.

Columns and labels:
[1] = target: full-length H1N1 A/Puerto Rico/8/34 recombinant HA (rHA) (influenza A virus H1N1 A/Puerto Rico/8/34) (UniProt P03452)
[2] = target: H1HA10 (influenza A virus H1N1 A/Puerto Rico/8/34) (UniProt A4GCI6)

CR6261 IgG (antibody)
Kd [1]: 8.9 nM
koff [1]: 0.00258 s⁻¹
kon [1]: 289000 M⁻¹ s⁻¹
Kd [2]: 315 nM
koff [2]: 0.00785 s⁻¹
kon [2]: 24900 M⁻¹ s⁻¹

F10-scFv
Kd [1]: 2.9 nM
koff [1]: 0.00121 s⁻¹
kon [1]: 415000 M⁻¹ s⁻¹

FI6v3-scFv
Kd [1]: 8.8 nM
koff [1]: 0.00216 s⁻¹
kon [1]: 245000 M⁻¹ s⁻¹
